Assay results as given in article PMC11214410 (iScience, 2024).

Target: T1, His-p97 F539A (human, UniProt P55072 1-806, F539A)
T1 construct: Homohexamer in the cryo-EM structure; also called F539A (D2); D2 mutant
Experiment: cross-linking; purified p97 F539A (1.26 mg/mL) and its adaptor (0.66 mg/mL) in 50mM HEPES pH 7.5, 30mM KCl, 10, 50 or 100 μM DTSSP, 30 min room temperature; trypsin, LC-MS/MS
Conditions: both partners purified

T1 sequence (P55072 whole entry F539A): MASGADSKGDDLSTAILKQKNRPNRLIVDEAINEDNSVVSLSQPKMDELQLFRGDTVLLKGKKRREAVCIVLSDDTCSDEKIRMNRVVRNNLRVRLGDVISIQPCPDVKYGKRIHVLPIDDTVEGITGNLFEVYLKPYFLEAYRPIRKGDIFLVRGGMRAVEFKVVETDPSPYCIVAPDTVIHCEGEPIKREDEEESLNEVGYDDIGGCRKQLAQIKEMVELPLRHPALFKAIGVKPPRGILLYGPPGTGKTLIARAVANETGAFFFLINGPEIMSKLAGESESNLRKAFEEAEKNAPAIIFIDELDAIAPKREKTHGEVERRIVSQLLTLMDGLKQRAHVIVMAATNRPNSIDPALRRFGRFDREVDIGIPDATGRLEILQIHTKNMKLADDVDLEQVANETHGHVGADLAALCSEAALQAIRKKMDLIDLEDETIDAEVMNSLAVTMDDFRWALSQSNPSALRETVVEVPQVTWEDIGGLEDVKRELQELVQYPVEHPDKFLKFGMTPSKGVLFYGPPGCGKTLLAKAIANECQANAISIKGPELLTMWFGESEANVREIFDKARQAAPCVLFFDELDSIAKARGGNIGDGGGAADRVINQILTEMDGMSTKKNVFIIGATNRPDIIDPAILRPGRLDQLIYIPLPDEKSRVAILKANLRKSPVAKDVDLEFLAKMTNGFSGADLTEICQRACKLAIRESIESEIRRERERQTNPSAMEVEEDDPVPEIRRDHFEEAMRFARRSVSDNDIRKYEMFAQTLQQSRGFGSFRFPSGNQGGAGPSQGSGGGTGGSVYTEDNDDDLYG

- binding result: binds
B1: Npl4 (untagged) (natural protein, rat, UniProt Q9ES54 1-608, looked up)
chain: MAESIIIRVQSPDGVKRITATKRETAATFLKKVAKEFGFQNNGFSVYINRNKTGEITASSSKSLHLLKIKHGDLLFLFPSSLAGPSSEMETSTSVGLKAFGAPHVVEDEIDQYLSKQDGKIYRSRDPQLCRHGPLGKCVHCVPLEPFDEDYLNHLEPPVKHMSFHAYIRKLTGGADKGKFVALENISCKIKSGCEGHLPWPNGICTKCQPSAITLNRQKYRHVDNIMFENHTVADRFLDFWRKTGNQHFGYLYGRYTEHKDIPLGIRAEVAAIYEPPQIGTQNSLELLEDPKAEVVDEIASKLGLRKVGWIFTDLVSEDTRKGTVRYSRNKDTYFLSSEECITAGDFQNKHPNICRLSPDGHFGSKFVTAVATGGPDNQVHFEGYQVSNQCMALVRDECLLPCKDAPELGYAKESSSEQYVPDVFYKDIDKFGNEITQLARPLPVEYLIIDITTTFPKDPVYTFSISQNPFPIENRDVLGETQDFHSLATYLSQNTSSVFLDTISDFHLLLFLVTNEVMPLQDSISLLLEAVRTRNEELAQTWKKSEQWATIEQLCSTVGVQLPGLHEFGAVGGSARAATSAMWACQHCTFMNQPGTGHCEMCSLPRT
notes: Npl4, untagged, expressed from pET30-Npl4; the cross-linking data were searched against rat Npl4; In the cryo-EM and cross-linking experiments Npl4 stood as part of the Ufd1/Npl4 heterodimer; source: E. coli BL21 (DE3), in lysate
